Patent US20140205611A1 (EVEC, published 2014)

How the values were obtained:
[1] = target: recombinant hGM-CSF expressed in E. coli (Fa. Biomol #2514) (human, UniProt P04141 18-144); test: cell-based or functional assay
[2] = target: T1, recombinant hGM-CSF derived from yeast (Leukine, Berlex) (human, UniProt P04141 18-144); test: SPR (Biacore), antibody captured via immobilised protein G, rhGM-CSF injected
T1 construct: Bought product; also called yeast hGM-CSF (Leukine); yeast GM-CSF (Leukine)
T1 sequence (P04141 other isoform, or with tags, fused parts or gaps limits assumed): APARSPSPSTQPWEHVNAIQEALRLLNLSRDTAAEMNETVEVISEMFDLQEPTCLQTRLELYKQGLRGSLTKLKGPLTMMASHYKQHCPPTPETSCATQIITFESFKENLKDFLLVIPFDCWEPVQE
Experimental: To calculate affinity constants for recombinant hGM-CSF binding to anti-hGM-CSF monoclonal antibodies, surface plasmon resonance (SPR) was performed on a Biacore System™ (FIG. 2).
In the method to analyze the interaction between antibodies and antigens, the purified antibodies were captured on a sensor chip via interaction with protein G immobilized to sensor chip surface, and then recombinant antigens were injected to the sensor chip. Purified antibodies were used and recombinant hGM-CSF was used as an antigen.

Sequence of recombinant hGM-CSF expressed in E. coli (Fa. Biomol #2514) (P04141 18-144 limits assumed): as the sequence (P04141 other isoform, or with tags, fused parts or gaps limits assumed) above, with L23R counted along it

Row | IC50 in TF-1 assay, hGM-CSF (E. coli) at 1.0 ng/ml final concentration [1] [pM] | Ratio: Reference antibody to antibody of interest (IC50 of BVD2-21C11 over IC50 of EV1018, TF-1 assay) [1] | Kd [2] [nM] | Binder
1 | 20 | 413 | 0.23 | EV1018 (antibody, human IgG1, lambda, also called wild-type EV1018; WT EV1018) heavy: not shown light: QSALTQETSVSGTVGQKVTLSCIGNNNNIGSHAVGWYQQISRGAPKMVLFGRSPPSGVPDRFSGSKSGTTASLIISGLQPEDEADYYCSTWDSSLSAVVFGGGTKLTVLRQPKAAPSVTLFPPSSEELQANKATLVCLISDFYPGAVTVAWKADSSPVKAGVETTTPSKQSNNKYAASSYLSLTPEQWKSHRSYSCQVTHEGSTVEKTVAPTECS
2 |  |  | 0.36 | EV1019 (antibody, human IgG1, lambda, V domains shown, also called EV1019 Batch 1; EV1019 Batch 2) VH: QAQLVESGGGVVKPGGSLRLSCISSKFTFSSHAMHWVRQAPGKGLEWVAVIWHDGSKKYYADSVKGRFSVSRDNSKNTLFLQMDSLRAEDTAVYFCGKEWVGGTCDSWGQGTLVIVSS VL: QPALTQEASVSGTVGQTVTLLCSGNSSNIGSYAVGWYQQISRGAPKIVVFGKSPASGIPDRFSGSKSGTTASLLVSGLQPEDEADYYCSTWDSRLSAVLFGGGTKLTVLR
